# From PMC9828152
# Biological target: Sp1 (specific protein 1) (UniProt P08047)
# Assay: anti-Flag co-IP, Sp1 blot
# Details: reference: Ets1 WT-Flag; sites Y283
substance,measurement,value
Ets1 (human E26 transcription factor 1) (from UniProt P14921) Ets1 Y283F-Flag,binding against the reference,weaker
